{"source": "patent US20210261643A1", "about": "“INHIBITORS OF P-TEFB MEDIATED TRANSCRIPTION” (The Regents of the University of California, priority 2018, published 2021)", "molecules": {"B1": {"name": "THT: fusion protein of TAT ARM, HEXIM CDK9 inhibitory domain and TAT P-TEFb-binding domain (protein)", "chain": "MEQKLISEEDLRKKRRQRRRAPPGGGGSRIRAEMFAKGQPVAPYNTTQFLMDDHDQEEPDLVDMEPVDPYLEPWKHPGSQPRTACNNCYCKKCCFHCYACFTRKGLGISYG"}, "B2": {"name": "HT2 (protein)", "chain": "KKKHRRRPSKKKRHWKPYYKLTWEEKKKVDMEPVDPYLEPWKHPGSQPRTACNNCYCKKCCFHCYACFTRKGLGISYG"}, "B3": {"name": "Myc-epitope tagged HEXIM1-Tat chimera HT1 (designed binder)", "chain": "KKKHRRRPSKKKRHWKPYYKLTWEEKKKFDEKQSLRASRIRAEMFAKGQPVAPYNTTQFLMDDHDQEEPDLVDMEPVDPYLEPWKHPGSQPRTACNNCYCKKCCFHCYACFTRKGLGISYG"}, "B4": {"name": "HT3 (protein)", "chain": "FDEKQSLRASRIRAEMFAKGQPVAPYNTTQFLMDDHDQEEPDLVDMEPVDPYLEPWKHPGSQPRTACNNCYCKKCCFHCYACFTRKGLGISYG"}}, "key": {"[1]": {"system": "HIV reactivation in J-Lat 9.2 cells", "experiment": "HIV reactivation in J-Lat 9.2 latent infection model, FACS of GFP positive cells", "assay_type": "cell-based", "conditions": "J-Lat 9.2 cells, PMA 100 nM", "description": "FIGS. 4A and 4B. Stable expression of HT1 inhibits HIV reactivation. FIG. 4A: Stable expression of HT1 inhibits HIV reactivation from 2D10 cells. 3f:HT1 was stably expressed in 2D10 cells (D-HT cells). […] Error bars represent standard deviation from triplicate FACS analysis. FIG. 4B: Stable expression of HT1 inhibits HIV reactivation from J-Lat 9.2 cells. 3f:HT1 was stably expressed in J-Lat 9.2 cells (L-HT cells). […] Error bars represent standard deviation from triplicate FACS analysis.\nTo test the effect of HT1 on HIV-1 in T-lymphocyte derived cells, 3f:HT1 was stably expressed in HIV latent infection models 2D10 and J-Lat 9.2 cells (D-HT and L-HT cells respectively), which carry replication-defective, GFP-flagged HIV proviruses. In both 2D10 and J-Lat 9.2, the basal HIV transcription level is undetectable, as measured through GFP expression. Compounds such as the PKC agonist PMA, the histone deacetylase inhibitor SAHA or the BET bromodomain inhibitor JQ1 reactivate HIV transcription and increase GFP-positive cells detected by FACS analysis. 2D10 cells are more sensitive to HIV reactivation than J-Lat 9.2 cells, though they harbor a mutation in the N-terminal sequence of Tat (H13L). 2D10 and D-HT cells were incubated for 24 hrs with PMA (10 nM), SAHA (5 μM) or JQ1 (1 μM) and GFP positive cells were detected by FACS analysis. […]"}, "[2]": {"system": "Tat-dependent gene expression from the HIV promoter", "experiment": "Luciferase reporter assay, pLTR-Luc co-transfected with pTat and pHT in 293T cells", "assay_type": "cell-based", "description": "FIGS. 2A, 2B, and 2C. A HEXIM1-Tat fusion peptide inhibits gene expression from the HIV promoter. FIG. 2A. Structure of the HEXIM1-Tat fusion peptides used in the study. The functional domains used from HEXIM1 and Tat include a HEXIM1 Arginine Rich Motif (ARM, black box, residues 150-162) that binds RNA, a HEXIM1 inhibitory domain (ID, light grey box, residues 200-211) that inhibits CDK9 through a PYNT motif, and Tat transactivation domain (AD, dark grey box, residues 1-48) that binds to P-TEFb. The conceptual schemes are not drawn to scale. FIG. 2B. Transient expression of HT1 inhibits Tat-induced LTR-driven Luc expression. Upper panel: a schema depicts the reporter assay. A luciferase reporter gene (Luc) is under the control of the HIV promoter (P-HIV) and can be activated by ectopically expressed Tat. The Luc assay was used to titrate the inhibitory effect of HT1-3 on P-HIV transactivation by Tat. Middle panel: increasing amounts of m:HT1, m:HT2 or m:HT3 expressing plasmid (pHT) were co-transfected in 293T cells with a plasmid (pTat) expressing f:Tat and another (pLTR-Luc) expressing Luc under the control of the HIV promoter. Luc activity was plotted as % activity relative to control (empty vector used instead of pHT), depending on the transfected pHT:pTat ratio. Error bars in the graph represent standard deviation from triplicate experiments. FIG. 2C. Transient expression of HT1 inhibits Luc expression from HIV-1 NL43ΔenvLuc. Top schema depicts the reporter assay. A luciferase reporter gene (Luc) is inserted in a replication-defective HIV-1 molecular clone (pNL43ΔenvLuc) in which Luc and Tat are under the control of the HIV promoter (P-HIV). A Luc assay was used to titrate the inhibitory effect of HT1-3 on P-HIV transactivation by Tat. Bottom: increasing amounts of pHT1 were co-transfected in 293T cells with pNL43ΔenvLuc. Luc activity was plotted as % activity relative to control (empty vector used instead of pHT), depending on the transfected amounts of pHT1. Error bars in the graph represent standard deviation from triplicate experiments.\nLuciferase (Luc) reporter assays were performed to titrate the potency of each chimera to inhibit Tat-dependent gene expression from the HIV promoter. Effector plasmids included pHT1-3 and pTat, which respectively expressed a Myc-epitope tag chimera (m:HT1-3) and a Flag-epitope tagged Tat (f:Tat). pHT1, pHT2 or pHT3 was transiently co-transfected in 293T cells with pTat and a Luc reporter gene under the control of the HIV promoter (P-HIV, expressed from the plasmid pLTR-Luc). […] Finally, HT1 lead to a 4-fold decrease in Luc expression at a 2:1 ratio. […] Similar results were obtained when co-transfecting pHT1-3 and pTat in NIH1 cells, which stably carry an LTR-Luc reporter gene. Thus, we selected HT1 for further investigation."}, "[3]": {"molecular_target": "positive transcription elongation factor B (UniProt O60563 1-726; P50750 1-372)", "sequence (O60563 whole entry, chain 1 of 2)": "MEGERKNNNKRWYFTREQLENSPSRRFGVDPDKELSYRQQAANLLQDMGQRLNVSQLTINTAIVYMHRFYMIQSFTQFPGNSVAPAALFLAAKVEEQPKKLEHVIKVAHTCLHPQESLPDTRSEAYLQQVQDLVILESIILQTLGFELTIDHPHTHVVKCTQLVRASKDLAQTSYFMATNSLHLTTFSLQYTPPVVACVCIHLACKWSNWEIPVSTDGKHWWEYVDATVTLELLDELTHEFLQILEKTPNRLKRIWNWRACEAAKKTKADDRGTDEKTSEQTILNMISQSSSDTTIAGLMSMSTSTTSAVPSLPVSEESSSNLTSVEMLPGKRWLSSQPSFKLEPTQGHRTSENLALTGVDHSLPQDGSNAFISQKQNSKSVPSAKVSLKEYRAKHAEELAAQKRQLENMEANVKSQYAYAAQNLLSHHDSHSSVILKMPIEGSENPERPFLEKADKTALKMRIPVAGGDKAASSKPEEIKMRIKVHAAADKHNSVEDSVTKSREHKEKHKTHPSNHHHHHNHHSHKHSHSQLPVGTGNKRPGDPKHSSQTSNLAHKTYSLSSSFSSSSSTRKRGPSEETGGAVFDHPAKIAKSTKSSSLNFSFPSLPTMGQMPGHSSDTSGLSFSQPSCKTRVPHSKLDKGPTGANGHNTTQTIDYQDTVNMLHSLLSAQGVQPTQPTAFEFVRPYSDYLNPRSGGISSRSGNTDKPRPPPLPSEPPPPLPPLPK", "sequence (P50750 whole entry, chain 2 of 2)": "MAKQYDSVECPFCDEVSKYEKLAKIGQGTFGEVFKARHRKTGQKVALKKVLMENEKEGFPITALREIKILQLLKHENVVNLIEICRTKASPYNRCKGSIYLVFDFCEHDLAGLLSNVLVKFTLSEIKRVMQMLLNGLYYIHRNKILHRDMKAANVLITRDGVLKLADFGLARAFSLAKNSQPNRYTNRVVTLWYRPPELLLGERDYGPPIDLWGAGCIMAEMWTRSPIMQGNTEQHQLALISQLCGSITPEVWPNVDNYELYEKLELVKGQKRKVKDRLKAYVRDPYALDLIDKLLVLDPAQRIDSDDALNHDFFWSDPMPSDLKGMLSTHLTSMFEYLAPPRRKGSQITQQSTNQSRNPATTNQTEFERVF", "experiment": "cell-based or functional assay"}, "HIV TAR RNA": {"system": "HIV TAR RNA", "experiment": "RNA immunoprecipitation and RT-qPCR with TAR-specific primers in 293T cells", "assay_type": "binding", "conditions": "293T cells, anti-Myc Ab, RT-qPCR", "procedure": "FIGS. 3A, 3B, 3C and 3D. HT1 prevents Tat from bringing active P-TEFb to TAR. FIG. 3A: HT1 inhibits the kinase activity of P-TEFb subunit CDK9. m:HT1 and/or f:Tat were transiently expressed in 293T cells. Cell lysates were used for IP using anti-Myc Ab (lanes 2-4), or control IgG (lane 1). Immunoprecipitates were incubated with ATP and recombinant GST-CTD proteins for in vitro kinase assay. Six replicate experiments were performed, and mean relative kinase activities are shown in the bar graph to the right. FIG. 3B: HT1 binds to TAR. m:HT1 or m:Tat (or empty vector, EV, as a control) was transiently co-expressed with TAR RNA-expressing pU16TAR in 293T cells. Cell lysates were used for IP using anti-Myc Ab or control IgG. RNA was purified from the immunoprecipitates and submitted to RT-qPCR using TAR-specific primers. Relative TAR enrichment was calculated as qPCR count using anti-Myc Ab minus using IgG, and normalized to EV. Error bars represent standard deviation from triplicate qPCR assays. […] Error bars represent standard deviation from triplicate qPCR assays. FIG. 3D: HT1 competes with Tat for TAR binding. m:HT1 and/or f:Tat were transiently co-expressed with TAR RNA-expressing pU16TAR in 293T cells. Cell lysates were used for IP using anti-Myc Ab or control IgG. RNA was purified from the immunoprecipitates and submitted to RT-qPCR using TAR-specific primers (upper panel). Relative TAR enrichment was calculated as qPCR count using anti-Myc Ab minus using IgG, and normalized to EV. Error bars represent standard deviation from triplicate qPCR assays.\nFinally, since HEXIM1 ARM resembles the TAR-binding domain from Tat, we investigated whether HT1 could bind to HIV TAR. m:HT1 or m:Tat was co-expressed in 293T cells with TAR RNA, expressed under RNA Polymerase III dependent H1 promoter, and immunoprecipitated using anti-Myc Ab or IgG as a control. TAR RNAs co-immunoprecipitated with HT1 or Tat were quantified by RT-qPCR analysis. […] To test whether HT1 affects Tat-TAR interactions, increasing amounts of m:HT1 were also co-expressed with a fixed amount of f:Tat and TAR. […] As expected, HT1 also bound to endogenous 7SK snRNA."}}}
{"molecule": "CCCCCCCCCCCCCC(=O)O[C@@H]1[C@@H](C)[C@@]2(O)[C@@H](C=C(CO)C[C@]3(O)C(=O)C(C)=C[C@@H]23)[C@@H]2C(C)(C)[C@]12OC(C)=O", "note": "[PMA, reference compound]", "values": [{"measurement": "increase in GFP expression", "setting": "[1]", "result": 12, "unit": "%"}]}
{"molecule": "B1", "values": [{"measurement": "inhibition of HIV transcription in luciferase assays (in words)", "setting": "[2]; luciferase assays performed as in Example 1", "result": "potently inhibited"}]}
{"molecule": "B2", "values": [{"measurement": "inhibition of Luc expression from the HIV promoter (in words)", "setting": "[2]; 293T cells, ratio of pHT2 to pTat 2:1", "result": "failed to inhibit"}]}
{"molecule": "B3", "values": [{"measurement": "fold decrease in relative kinase activity (CTD-P band intensity normalized with CDK9), in vitro kinase assay on immunoprecipitates with ATP and GST-CTD", "setting": "[3]", "result": 3.1, "unit": "fold"}]}
{"molecule": "B4", "values": [{"measurement": "immunoprecipitation of TAR RNA (in words)", "setting": "HIV TAR RNA", "result": "failed to bind TAR"}, {"measurement": "decrease in Luc expression from the HIV promoter", "setting": "[2]; 293T cells, pHT:pTat ratio 2:1", "result": "≤ 2", "unit": "fold"}]}
